The record followed here is patent US20140134183A1 (CELL MEDICA SWITZERLAND, published 2014).

Values joined by “and” are separate entries in the source; they are usually repeats but may differ in a detail not shown here. Equal entries are not always repeated.

For test [1], the target named is T1, IL-36ra (human, UniProt Q9UBH0 2-155).
T1 construct: Bought protein
T1 sequence (looked up): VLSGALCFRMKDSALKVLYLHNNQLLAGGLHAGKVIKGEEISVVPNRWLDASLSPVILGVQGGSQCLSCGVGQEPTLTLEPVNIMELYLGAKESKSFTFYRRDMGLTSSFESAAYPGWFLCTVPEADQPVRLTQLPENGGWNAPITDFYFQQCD
Description: ELISA, cytokine coated, carried out essentially as for the species orthologs. The method, then:
(§1) Briefly, proteins were coated at a concentration of 2 mcg/ml over night at 4° C. on Maxisorp 96-well microplates in PBS. […] The ELISA was developed with BM Blue POD substrate (Roche Applied Science) and the absorbance was measured at 450 nm.
(§2) In the applied ELISA assay the following antibodies served as positive controls: biotin anti-human IL-1ra (BioLegend, cat. no. 509501), biotin anti-human IL-1 alpha (BioLegend, cat. no. 515703), anti-human IL-18 polyclonal antibody (BioVision, cat. no. 5179-100), biotin anti-human IL-33 antibody (Peprotech, cat. no. 500-P261Bt), anti-human TNF alpha scFv DLX105 (Delenex propriety antibody described in WO 2006/131013 A), biotin anti-human IL-6 (R&D systems, DY206, cat. no. 840114), anti-human IL-36ra (R&D systems, cat. no. AF1275). The ELISA was carried out essentially as described above.
For orientation: ELISA stands for enzyme-linked immunosorbent assay.

The target of test [2] is T2, rhTNF alpha (human, UniProt P01375 77-233).
T2 construct: Bought protein
T2 sequence (P01375 77-233): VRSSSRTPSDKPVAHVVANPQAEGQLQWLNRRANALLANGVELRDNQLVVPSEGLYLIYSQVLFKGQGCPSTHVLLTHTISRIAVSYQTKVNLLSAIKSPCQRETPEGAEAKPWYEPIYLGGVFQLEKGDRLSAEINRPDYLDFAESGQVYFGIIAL
The description is as above. On the procedure:
as §1, §2

Test [3] concerns the target T3, rhIL-18 (human, UniProt Q14116 37-193).
T3 construct: Bought protein
The test is described as above. On the procedure:
as §1, §2

The target of test [4] is T4, rhIL-6 (human, UniProt P05231 30-212).
T4 construct: Bought protein
T4 sequence (P05231 30-212 limits assumed): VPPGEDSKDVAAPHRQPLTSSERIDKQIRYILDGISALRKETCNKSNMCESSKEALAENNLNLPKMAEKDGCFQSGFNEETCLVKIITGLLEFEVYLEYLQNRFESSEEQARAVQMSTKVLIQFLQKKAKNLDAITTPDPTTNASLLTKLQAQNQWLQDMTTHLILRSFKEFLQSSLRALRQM
The description is as above. On the procedure:
as §1, §2

Test [5] has as its target T5, rhIL-33 (human, UniProt O95760 112-270).
T5 construct: Bought protein
T5 sequence (looked up): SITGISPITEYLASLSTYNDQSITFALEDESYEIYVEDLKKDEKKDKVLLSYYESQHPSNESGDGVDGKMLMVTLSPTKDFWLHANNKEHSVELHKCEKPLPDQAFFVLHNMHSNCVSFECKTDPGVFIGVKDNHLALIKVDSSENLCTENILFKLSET
The test is described as above. The method, then:
as §1, §2

Test [6] deals with T6, rhIL-1ra (human, UniProt P18510 26-177).
T6 construct: Bought protein; also called rhIL-1 receptor antagonist; IL-1 beta receptor antagonist
T6 sequence (P18510 26-177): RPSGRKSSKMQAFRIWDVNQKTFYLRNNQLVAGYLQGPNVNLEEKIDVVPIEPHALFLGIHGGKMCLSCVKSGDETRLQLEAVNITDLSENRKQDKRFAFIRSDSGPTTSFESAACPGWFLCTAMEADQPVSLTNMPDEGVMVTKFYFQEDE
Described as above. The method, then: as §1, §2

Test [7] concerns the target T7, rhIL-1 alpha (human, UniProt P01583 113-271).
T7 construct: Bought protein
T7 sequence (looked up): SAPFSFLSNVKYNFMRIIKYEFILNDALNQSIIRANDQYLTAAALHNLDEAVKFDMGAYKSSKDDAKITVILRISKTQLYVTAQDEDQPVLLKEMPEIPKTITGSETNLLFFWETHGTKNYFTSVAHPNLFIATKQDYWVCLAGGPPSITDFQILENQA
The test is described as above. The method, then:
as §1, §2

Test [8] deals with T8, mouse IL-1 beta (mouse, UniProt P10749 118-269).
T8 construct: Bought protein
T8 sequence (P10749 118-269 limits assumed): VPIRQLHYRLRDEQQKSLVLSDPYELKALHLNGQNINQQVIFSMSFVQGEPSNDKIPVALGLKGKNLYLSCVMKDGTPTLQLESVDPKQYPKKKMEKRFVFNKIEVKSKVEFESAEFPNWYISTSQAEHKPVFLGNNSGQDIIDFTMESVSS
The test is described as follows: ELISA, IL-1 beta coated at 2 mcg/ml, Protein L-HRP detection. The text has this:
(§3) Binding to the recombinantly expressed IL-1 beta proteins of the following species was investigated: cynomolgus (Sino Biological Inc., USA, cat. no. 90010-CNAE), rhesus macaque (R&D Systems, USA, cat. no. 1318-RL/CF), swine (Kingfisher Biotech, USA, cat. no. RP0297S-025), canine (Kingfisher Biotech, USA, cat. no. RP0085D-025), guinea pig (Kingfisher Biotech, cat. no. RP0343GP-025), rat (Peprotech, cat. no. 400-01B) and mouse (BioLegend, cat. no. 575102). […] Briefly, proteins were coated at a concentration of 2 mcg/ml over night at 4° C. on Maxisorp 96-well microplates in PBS. […] The ELISA was developed with BM Blue POD substrate (Roche Applied Science) and the absorbance was measured at 450 nm.

In test [9] the target is T9, guinea pig IL-1 beta (guinea pig, UniProt Q9WVG1 115-266).
T9 construct: Bought protein
T9 sequence: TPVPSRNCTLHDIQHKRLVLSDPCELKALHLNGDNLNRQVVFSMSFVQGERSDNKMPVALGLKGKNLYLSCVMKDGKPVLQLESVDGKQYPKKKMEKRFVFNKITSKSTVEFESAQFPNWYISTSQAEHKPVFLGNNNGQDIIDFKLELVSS
Described as above.
Description: as §3

In test [10] the target is T10, canine IL-1 beta (canine, UniProt Q28292 115-266, limits assumed).
T10 construct: Bought protein
T10 sequence (looked up): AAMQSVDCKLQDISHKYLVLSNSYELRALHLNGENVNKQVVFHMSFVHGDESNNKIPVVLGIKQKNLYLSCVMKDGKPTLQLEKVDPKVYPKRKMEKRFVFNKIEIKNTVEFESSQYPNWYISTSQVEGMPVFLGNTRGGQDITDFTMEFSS
The description is as above.
Description: as §3

The target of test [11] is T11, swine IL-1 beta (swine, UniProt P26889 115-267, limits assumed).
T11 construct: Bought protein; also called porcine IL-1 beta
T11 sequence (looked up): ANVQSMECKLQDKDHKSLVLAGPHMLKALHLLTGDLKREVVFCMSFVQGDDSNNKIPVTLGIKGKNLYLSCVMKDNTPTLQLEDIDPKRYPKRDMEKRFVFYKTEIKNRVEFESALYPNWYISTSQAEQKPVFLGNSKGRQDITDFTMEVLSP
Described as above.
Description: as §3

Test [12] concerns the target recombinant human IL-1 beta (human, UniProt P01584 117-269). Description: cell-based or functional assay.
For test [13], the target named is T12, rhesus macaque IL-1 beta (rhesus macaque, UniProt P48090 117-269).
T12 construct: Bought protein; also called rhesus monkey IL-1 beta
T12 sequence (P48090 117-269 limits assumed): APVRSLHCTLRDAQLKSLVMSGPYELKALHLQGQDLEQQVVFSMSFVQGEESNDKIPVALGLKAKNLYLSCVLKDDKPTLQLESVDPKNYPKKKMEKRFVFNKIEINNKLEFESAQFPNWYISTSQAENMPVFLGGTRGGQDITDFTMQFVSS
Description: ELISA, IL-1 beta coated at 2 mcg/ml, DLX2323 0.1 to 1.0 mcg/ml, Protein L-HRP detection.
Description: as §3

Test [14] addresses T13, cynomolgus IL-1 beta (cynomolgus, UniProt P79182 117-268).
T13 construct: Bought protein
Described as above.
Description: as §3

The target in test [15] is T14, rat IL-1 beta (rat, UniProt Q63264 117-268).
T14 construct: Bought protein
T14 sequence (Q63264 117-268 limits assumed): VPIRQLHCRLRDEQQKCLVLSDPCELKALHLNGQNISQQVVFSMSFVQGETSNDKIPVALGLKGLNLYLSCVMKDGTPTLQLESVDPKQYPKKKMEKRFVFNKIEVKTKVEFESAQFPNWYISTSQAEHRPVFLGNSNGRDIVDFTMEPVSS
The test is described as above.
Description: as §3

T13 sequence (P79182 117-268 limits assumed): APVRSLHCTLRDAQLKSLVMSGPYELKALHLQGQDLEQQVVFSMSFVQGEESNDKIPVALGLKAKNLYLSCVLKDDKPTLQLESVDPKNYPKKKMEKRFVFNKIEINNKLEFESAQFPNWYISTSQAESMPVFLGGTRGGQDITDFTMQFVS

B1: DLX2323 (scFv)
scFv: EIVMTQSPSTLSASVGDRVIITCQASQSIDNWLSWYQQKPGKAPKLLIYRASTLASGVPSRFSGSGSGAEFTLTISSLQPDDFATYYCQNTGGGVSIAFGQGTKLTVLGGGGGSGGGGSGGGGSGGGGSEVQLVESGGGLVQPGGSLRLSCTASGFSLSSAAMAWVRQAPGKGLEWVGIIYDSASTYYASWAKGRFTISRDTSKNTVYLQMNSLRAEDTAVYYCARERAIFSGDFVLWGQGTLVTVSS
notes: also called scFv DLX2323; parental scFv
As for B1, the binding result in test [1], in [2], in [3], in test [4], in test [5] and in test [6] was “no binding” in each case. Besides, the binding result in test [7] was “no binding”; in test [8] it was “no binding (tested: 1.0 mcg/ml)”; in [9], “no binding (tested: 1.0 mcg/ml)”; in test [10] it was “no binding (tested: 1.0 mcg/ml)”; in [11], “no binding (tested: 1.0 mcg/ml)”; in test [13], “binds”. Moreover, the binding result in test [14] and in [15] was “binds” in each case. Moreover, in [12], the “IC50 of IL-1 beta-induced IL-6 release from human dermal fibroblasts” value is 3 pM and 0.002 nM to 0.004 nM (2×).
